Literature values, collected in PMC3815026.

Experiments:
[1] = target: MBL (Homo sapiens) (UniProt P11226); experiment: Scatchard
[2] = target: C1q (Homo sapiens) (UniProt P02745); experiment: Scatchard
Sequence of C1q (Homo sapiens) (P02745 23-245, chain 1 of 3): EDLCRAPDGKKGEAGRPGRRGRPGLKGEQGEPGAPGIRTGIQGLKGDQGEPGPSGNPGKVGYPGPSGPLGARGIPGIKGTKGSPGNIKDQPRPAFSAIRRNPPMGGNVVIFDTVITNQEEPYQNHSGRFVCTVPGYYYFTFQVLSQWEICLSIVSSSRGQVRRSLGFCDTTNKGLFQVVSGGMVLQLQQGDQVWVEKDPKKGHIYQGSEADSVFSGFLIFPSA
Sequence of C1q (Homo sapiens) (P02746 28-253, chain 2 of 3, further chain): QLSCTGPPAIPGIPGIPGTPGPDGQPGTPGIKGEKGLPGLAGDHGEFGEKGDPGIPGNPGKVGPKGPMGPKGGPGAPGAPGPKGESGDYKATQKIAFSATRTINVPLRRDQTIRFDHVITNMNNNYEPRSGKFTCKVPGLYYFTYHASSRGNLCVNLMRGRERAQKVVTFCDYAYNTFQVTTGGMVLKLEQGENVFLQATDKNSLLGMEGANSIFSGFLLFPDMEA
Sequence of C1q (Homo sapiens) (P02747 29-245, chain 3 of 3, further chain): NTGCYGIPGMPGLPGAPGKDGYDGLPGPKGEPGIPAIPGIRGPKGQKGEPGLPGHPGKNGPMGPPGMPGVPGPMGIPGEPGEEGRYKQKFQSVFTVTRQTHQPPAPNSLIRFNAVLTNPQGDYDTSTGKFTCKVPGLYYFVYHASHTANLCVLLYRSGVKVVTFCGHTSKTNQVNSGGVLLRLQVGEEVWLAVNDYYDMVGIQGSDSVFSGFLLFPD

Sequence of serglycin (myeloma cell-derived) (P10124 28-158): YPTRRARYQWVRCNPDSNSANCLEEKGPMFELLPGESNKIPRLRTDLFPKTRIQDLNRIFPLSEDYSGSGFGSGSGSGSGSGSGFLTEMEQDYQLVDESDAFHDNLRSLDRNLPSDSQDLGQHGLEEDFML
Sequence of MBL (Homo sapiens) (P11226 21-248): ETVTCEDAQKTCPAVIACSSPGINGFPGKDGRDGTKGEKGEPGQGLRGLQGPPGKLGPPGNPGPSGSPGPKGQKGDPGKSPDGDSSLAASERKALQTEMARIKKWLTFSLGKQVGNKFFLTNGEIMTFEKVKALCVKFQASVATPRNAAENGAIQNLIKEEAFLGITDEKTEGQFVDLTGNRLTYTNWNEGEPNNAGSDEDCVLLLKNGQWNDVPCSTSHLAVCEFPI

Kd [1]: 19 nM | Kd [2]: 40 nM
Substance: serglycin (myeloma cell-derived) (from UniProt P10124)
